Key:
Assay in all cases: SPR
[1] = target: VRC01 antibody derived from HEK cells (VRC01HEK) (human)
[2] = target: VRC01 co‐expressed with human β1,4‐galactosyltransferase in the ΔXT/FT plant line (VRC01Gal) (human)
[3] = target: VRC01 expressed in the ΔXT/FT N. benthamiana plant line (VRC01ΔXF) (human)
[4] = target: VRC01 expressed transiently in WT N. benthamiana (VRC01WT) (human)
VRC01 expressed transiently in WT N. benthamiana (VRC01WT) (human), sequence (light, as listed by the source, chain 2 of 2, other chains not shown): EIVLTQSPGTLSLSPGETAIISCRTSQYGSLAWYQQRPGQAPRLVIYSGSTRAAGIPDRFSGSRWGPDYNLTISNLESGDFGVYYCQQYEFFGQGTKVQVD

VRC01 co‐expressed with human β1,4‐galactosyltransferase in the ΔXT/FT plant line (VRC01Gal) (human), sequence (light, as listed by the source, chain 2 of 2, other chains not shown): as above
VRC01 antibody derived from HEK cells (VRC01HEK) (human), sequence (light, as listed by the source, chain 2 of 2, other chains not shown): as above
VRC01 expressed in the ΔXT/FT N. benthamiana plant line (VRC01ΔXF) (human), sequence (light, as listed by the source, chain 2 of 2, other chains not shown): as above

B1: recombinant human FcγRIIa ectodomain, polymorphic variant R131 (receptor)
chain: QAAAPPKAVLKLEPPWINVLQEDSVTLTCQGARSPESDSIQWFHNGNLIPTHTQPSYRFKANNNDSGEYTCQTGQTSLSDPVHLTVLSEWLVLQTPHLEFQEGETIMLRCHSWKDKPLVKVTFFQNGKSQKFSRLDPTFSIPQANHSHSGDYHCTGNIGYTLFSSKPVTITVQVPSMGSSSPMG
modifications: not checked
In the case of B1, the Kd [1] is reported as 937 nM, the Kd [2] is reported as 1500 nM and the Kd [3] is reported as 780 nM. The Kd [4] was over 7000 nM.

— article PMC6953194
